In paper PMC11606652 one finds stoichiometry N data, which are given here for one substance.

For this test, the target named is Kluyveromyces marxianus GCN2 histidyl-tRNA synthetase-like (HRSL) domain, residues 996-1,511 (Kluyveromyces marxianus). Put plainly: SEC.

Substance “Kluyveromyces marxianus GCN2 histidyl-tRNA synthetase-like (HRSL) domain, residues 996-1,511 (domain or fragment)” returned a stoichiometry N of 2.

Usually stoichiometry N stands for the number of molecules, sites or subunits per partner or assembly.
